Measured values from PMC5936033.

Tested on: GST-VP1 (Chicken anaemia virus (strain CAU269/7?))
Experiment: EMSA (agarose)
Details: 50 mM Tris-HCl pH 7.5, 120 mM KCl, 1.0 mM EDTA, 0.5 mM DTT, 30 mg/ml BSA (so in the source); 100 ng DNA in 20 ul, 37 C, 30 min (Results: 1 h); 0.8% agarose/TAE. Text …

Substance | percent unbound DNA (% unbound DNA)
CAV genome minus-strand linear ssDNA | 53.3
M13mp18 ssDNA | 46.5
linear pcDNA3.1 (EcoRI) | 84.7
pCAV, open circular (form I) | 59.6
pCAV, supercoiled (form II) | 82.6
